Reference: the supplement of paper PMC11246515
± gives the standard deviation of the averaged measurements.

Assay: total protein half-life in vivo (active degradation + dilution); higher = more stable protein
[1] = E. coli NCM3722 delta-lon, growth: N-lim chemostat, doubling time 6 h
[2] = wild type E. coli NCM3722, growth: C-lim chemostat, doubling time 3 h
[3] = wild type E. coli NCM3722, growth: C-lim chemostat, doubling time 6 h
[4] = wild type E. coli NCM3722, growth: C-lim chemostat, doubling time 12 h
[5] = wild type E. coli NCM3722, growth: N-lim chemostat, doubling time 12 h
[6] = E. coli NCM3722 delta-clpP, growth: N-lim chemostat, doubling time 6 h
[7] = E. coli NCM3722 delta-hslV, growth: N-lim chemostat, doubling time 6 h
[8] = E. coli NCM3722 delta-smpB, growth: N-lim chemostat, doubling time 6 h
[9] = wild type E. coli NCM3722, growth: P-lim chemostat, doubling time 6 h
[10] = wild type E. coli NCM3722, growth: P-lim chemostat, doubling time 12 h
[11] = E. coli NCM3722 delta-clpP delta-lon delta-hslV, growth: N-lim chemostat, doubling time 6 h
[12] = wild type E. coli NCM3722, growth: N-lim chemostat, doubling time 6 h

| Sequence | total protein half-life in vivo [1] [h] | total protein half-life in vivo [2] [h] | total protein half-life in vivo [3] [h] | total protein half-life in vivo [4] [h] | total protein half-life in vivo [5] [h] | total protein half-life in vivo [6] [h] | total protein half-life in vivo [7] [h] | total protein half-life in vivo [8] [h] | total protein half-life in vivo [9] [h] | total protein half-life in vivo [10] [h] | total protein half-life in vivo [11] [h] | total protein half-life in vivo [12] [h] |
| --- | --- | --- | --- | --- | --- | --- | --- | --- | --- | --- | --- | --- |
| MSRIEAVFFDCDGTLVDSEVICSRAYVTMFQEFGITLDPEEVFKRFKGVKLYEIIDIVSLEHGVTLAKTEAEHVYRAEVARLFDSELEAIEGAGALLSAITAPMCVVSNGPNNKMQHSMGKLNMLHYFPDKLFSGYDIQRWKPDPALMFHAAKAMNVNVENCILVDDSVAGAQSGIDAGMEVFYFCADPHNKPIVHPKVTTFTHLSQLPELWKARGWDITA | 2.73 | 2.09 | 4.76 | 9.19 | 2.64 | – | – | – | – | – | – | – |
| MSRKQLALFEPTLVVQALKEAVKKLNPQAQWRNPVMFIVWIGSLLTTCISIAMASGAMPGNALFSAAISGWLWITVLFANFAEALAEGRSKAQANSLKGVKKTAFARKLREPKYGAAADKVPADQLRKGDIVLVEAGDIIPCDGEVIEGGASVDESAITGESAPVIRESGGDFASVTGGTRILSDWLVIECSVNPGETFLDRMIAMVEGAQRRKTPNEIALTILLIALTIVFLLATATLWPFSAWGGNAVSVTVLVALLVCLIPTTIGGLLSAIGVAGMSRMLGANVIATSGRAVEAAGDVDVLLLDKTGTITLGNRQASEFIPAQGVDEKTLADAAQLASLADETPEGRSIVILAKQRFNLRERDVQSLHATFVPFTAQSRMSGINIDNRMIRKGSVDAIRRHVEANGGHFPTDVDQKVDQVARQGATPLVVVEGSRVLGVIALKDIVKGGIKERFAQLRKMGIKTVMITGDNRLTAAAIAAEAGVDDFLAEATPEAKLALIRQYQAEGRLVAMTGDGTNDAPALAQADVAVAMNSGTQAAKEAGNMVDLDSNPTKLIEVVHIGKQMLMTRGSLTTFSIANDVAKYFAIIPAAFAATYPQLNALNIMCLHSPDSAILSAVIFNALIIVFLIPLALKGVSYKPLTASAMLRRNLWIYGLGGLLVPFIGIKVIDLLLTVCGLV | 6.41 | 2.79 | – | 11.5 | 7.13 ± 1.7 | 5.05 | 5.02 | 3.79 | 7.01 ± 1.2 | 10.4 ± 0.27 | – | – |
| MSRLSPVNQARWARFRHNRRGYWSLWIFLVLFGLSLCSELIANDKPLLVRYDGSWYFPLLKNYSESDFGGPLASQADYQDPWLKQRLENNGWVLWAPIRFGATSINFATNKPFPSPPSRQNWLGTDANGGDVLARILYGTRISVLFGLMLTLCSSVMGVLAGALQGYYGGKVDLWGQRFIEVWSGMPTLFLIILLSSVVQPNFWWLLAITVLFGWMSLVGVVRAEFLRTRNFDYIRAAQALGVSDRSIILRHMLPNAMVATLTFLPFILCSSITTLTSLDFLGFGLPLGSPSLGELLLQGKNNLQAPWLGITAFLSVAILLSLLIFIGEAVRDAFDPNKAV | – | – | – | – | – | 6.1 | – | 5.43 ± 0.61 | – | 13.2 | 6 | 6.44 |
| MSRPRRRGRDINGVLLLDKPQGMSSNDALQKVKRIYNANRAGHTGALDPLATGMLPICLGEATKFSQYLLDSDKRYRVIARLGQRTDTSDADGQIVEERPVTFSAEQLAAALDTFRGDIEQIPSMYSALKYQGKKLYEYARQGIEVPREARPITVYELLFIRHEGNELELEIHCSKGTYIRTIIDDLGEKLGCGAHVIYLRRLAVSKYPVERMVTLEHLRELVEQAEQQDIPAAELLDPLLMPMDSPASDYPVVNLPLTSSVYFKNGNPVRTSGAPLEGLVRVTEGENGKFIGMGEIDDEGRVAPRRLVVEYPA | 4.83 ± 0.34 | 3.06 ± 0.59 | 5.2 ± 0.55 | 9.72 ± 0.41 | 7.6476 ± 0.0051 | 4.93 ± 0.41 | 4.51 ± 0.27 | 4.29 ± 0.17 | 5.59 ± 0.17 | 12.2 ± 2.5 | 5.81 ± 0.72 | 4.89 ± 0.18 |
| MSRRVATITLNPAYDLVGFCPEIERGEVNLVKTTGLHAAGKGINVAKVLKDLGIDVTVGGFLGKDNQDGFQQLFSELGIANRFQVVQGRTRINVKLTEKDGEVTDFNFSGFEVTPADWERFVTDSLSWLGQFDMVCVSGSLPSGVSPEAFTDWMTRLRSQCPCIIFDSSREALVAGLKAAPWLVKPNRRELEIWAGRKLPEMKDVIEAAHALREQGIAHVVISLGAEGALWVNASGEWIAKPPSVDVVSTVGAGDSMVGGLIYGLLMRESSEHTLRLATAVAALAVSQSNVGITDRPQLAAMMARVDLQPFN [P0AEW9] | 5.57 ± 1.3 | 3.11 ± 0.06 | 7.05 ± 0.084 | 12.2 ± 0.77 | 10.74 ± 0.098 | 6.29 ± 0.82 | 6.11 ± 0.88 | 5.34 ± 0.068 | 6.22 ± 0.24 | 13.5 ± 2.4 | 5.41 ± 0.1 | 5.61 ± 0.2 |
| MSRSLLTNETSELDLLDQRPFDQTDFDILKSYEAVVDGLAMLIGSHCEIVLHSLQDLKCSAIRIANGEHTGRKIGSPITDLALRMLHDMTGADSSVSKCYFTRAKSGVLMKSLTIAIRNREQRVIGLLCINMNLDVPFSQIMSTFVPPETPDVGSSVNFASSVEDLVTQTLEFTIEEVNADRNVSNNAKNRQIVLNLYEKGIFDIKDAINQVADRLNISKHTVYLYIRQFKSGDFQGQDK | 3.21 ± 0.28 | 2.482 ± 0.004 | 4.69 ± 1.3 | 6.93 ± 0.81 | 4.95 ± 1.1 | 4.65 ± 0.54 | 3.52 ± 0.076 | 3.38 ± 0.41 | 3.94 ± 0.15 | 6.94 ± 0.43 | 6.19 ± 0.97 | 3.36 ± 0.46 |
| MSRSQNLRHNVINQVIDDMARGHIPSPLPSQSALAEMYNISRTTVRHILSHLRECGVLTQVGNDYVIARKPDHDDGFACTTASMSEQNKVFEQAFFTMINQRQLRPGETFSELQLARAAGVSPVVVREYLLKFGRYNLIHSEKRGQWSMKQFDQSYAEQLFELREMLETHSLQHFLNLPDHDPRWLQAKTMLERHRLLRDNIGNSFRMFSQLDRDFHSLLLSAADNIFFDQSLEIISVIFHFHYQWDESDLKQRNIIAVDEHMTILSALICRSDLDATLALRNHLNSAKQSMIRSINENTRYAH | – | 0.713 | 1.15 | – | – | – | – | – | – | – | – | – |
| MSRTIFCTFLQREAEGQDFQLYPGELGKRIYNEISKEAWAQWQHKQTMLINEKKLNMMNAEHRKLLEQEMVNFLFEGKEVHIEGYTPEDKK [P0A8P3] | 5.01 ± 0.2 | 3.07 ± 0.31 | 5.14 ± 0.14 | 8.58 ± 1.5 | 6.39 ± 0.51 | 4.957 ± 0.0071 | 4.94 ± 1.4 | 3.99 ± 0.37 | 5.7 | 9.27 ± 1.4 | 6.2 ± 0.24 | 3.63 ± 0.074 |
